Results from the nanobody polyreactivity screen of Harvey et al. (2022).

Test: yeast display, Sf9 membrane polyspecificity reagent, FACS + sequencing; frameworks hold sequencing errors
In short: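 After 36–48 hours of galactose induction, yeast (Saccharomyces cerevisiae BJ5465) displaying a synthetic nanobody library were stained at 4 °C for 1 hour with 10% biotinylated, detergent-solubilized Sf9 membrane reagent. Streptavidin microbeads enriched the stained cells before FACS sorting into low and high (top ~1%) gates on anti-HA and streptavidin fluorescence. Each clone's polyreactivity label reflects its gate of origin.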

Sequence	polyreactivity (PSR sort gate)
QVQLVESGGGLVQAGGSLRLSCAASGITFCYYGMGRYRQAPGKERELVAAISSGGRTYYADSVKGRFTISRDNAKNTVYLQMNSLNPEDSAVYYCADRTKYIFVYQGVYWGQGTQVTVSS	high polyreactivity
QVQLVESGGGLVQAGGSLRLSCAASGSTFYPYAMGWYRQAPGKERELVADITNSGSTYYADSVKGRFTISRDNAKNTVYLQMNSLKPEDTAVYYCAARVYSVADYYYWGQGTQVTVSS	low polyreactivity
QVQLVESGGGLVQEGGSLRLSCAASGTFYDYVMGLYRPAPGKERELVATISDNDGSTYYADSVKGRFTISRDNAKNTVYLQKNSLKPEDTALYYCNAGRTWPIVADYSWLSYGSWGQGTQVTVSS	high polyreactivity
QVQLVESGGGLVQAGGSLRLSCAASGRIFDYYDMGWYRQAPVKERELVAAITSSGTSTYYADSVKGRFTISRDNAKNTVYLQMNSLKPEDTAVYYCNARSIRPWGENGFWGQGTQVTVSS	high polyreactivity
QFQLVESGGGLVQAGGSLRLSCAASGSIFQSYAMVWYRQAPGKERELVAAITRSGGRTYYADSVKGRFTISRDNAKNTVYLQMNSLKPEDTAVYFCAAFGWGYGYWGQGTQVTVSS	high polyreactivity
KVQLVESGGGLVQAGGSLRLSCAASGFTLGYYAMGWYRQEPGKEREMVAAITSGGGTNYADSVKGRFTISRDNAKNTVYLQMNSLKPEDSAVYYCAARARWIYGMYSWGQGTQVTLSS	low polyreactivity
QVQLVESVVGLVQAGGSLRLSSAASGGTFDLYAMGWYRQAPGKERELVAAISRRGSSTYYADSVKGRFTISRDNAKNTVYLQMTSLKPEDTAVYFCNNRYYWHGINEYWGQGTQVTVSS	high polyreactivity
QVQRVESGGGLVQAGGSLRISCAASGLIFYRYAMGRYRQAPGKERELVAAISKRGTSTYYADSVKGRFTISRDNAKNTVYLQMNSLKPEDTAVYYCAADVQEEYDYWGLGTQVTVSS	high polyreactivity
QVDLVASGGGLVQAGGSLRLSCAASGNIFANYAMGSYRQAPGKERELVAAIRWSASRTYYADSVKARFTISRDNAKNSVYFQLNSLKPEDTAVYYCAATIYTFWDYYYDYWGQGTQVTVSW	high polyreactivity
QVQLVESGGGLVQAGGSLRLSCAASGSIFYSNTMGWYRQAPGKERELVAAISSSSGRTYYADSVKGRFTISRDNAKNTGFLQMNSLKPEDTAVYYCARRYGWGQGTQVTVSS	high polyreactivity
QVQLVESGGGLVQAGGSLRLSCADSGITFSRYAMGWYRQAPGKERELVAAITRRGGNTYYADSVKGRFTISRDIAKNTVYLQMNSLKPVDTAVYYCASGYTYYGGDYWGQGTQVTVSS	high polyreactivity
HVQLQESGGGLVQEGGSLRLSCAASGSIFQATYMGWYRQAPGKELEFVASITYGSITNYADSVKGSFTIGRDNAKDTLYLQMNSLKPEDTAVYYCAVDRHYIPDFHYWGQGTQVTVSS	low polyreactivity
QVQLVESGGGLVQAGGSLRVSCAASGFIIIGYVMGWYRQSPGKERELVAAITSSGGSTYYADSVKGRFTISRDNAKNTVYLQMNSLKPEDTAVYYWNADIYISPLVQVSKGYDYWGQGTQVTVSS	low polyreactivity
QVQLEESGGGLVQAGGSLRLSCAASGFIFGLNAMGWYRQAPGKERELVAGIRSGSSTNYADSVKGRFTISRDNAKNTVYLQMNSLKPEDTAVYYCATEGYWVYGFDDEYWGQGTQVTVSS	low polyreactivity
QVQLVESGGGLVQAGGSLRLSCAASGSIFNINAMGWYRQAPGKERELVAAISKRGGSTYYADSVKGRFTISRDNAKNTVYLQLNSLKPEDTAVYYCAADLTGVDYDYWGQGTQVTVSS	high polyreactivity
EEELVESGGGLVQAGGSLRLSCAASGSTFVSNAMGWYRQAPGKERELVAAISSSGGSTYYADSVKGRFTISRDNAKNTVYLQMNSLKPEDTAVYYCVDYYIGYTHNYNYWGQGTQVTVSS	low polyreactivity

Sequence	polyreactivity (PSR sort gate)
QVQLVESGGGLVQAGGSLRLSCAASGITFKYYGMGWYRQAPGKERELVAAISWSGASTYYADSVKRRFTISRDNAKNTVYLQMNSLKPEDTAVYYCAAVRRRGQRGRLDYWGQGTQVTVSS	high polyreactivity
QVQLVESGGGLVQAGGSLRISCAASGRTFGIYAMGWYIKGPGKERELVADITIGGSTFYADSVKGRFTISRDNAKNTVYLPMNSLKPEDTAVYYCYDDVVVQYYFTYYRFFTYDYWGQGTQVTVSS	low polyreactivity
QVQLVESGGGLVQAGGSLRLSCAASGFIFRWYAMGWYRQAPGKERELVAANSSGSSTTYADSVKGRFTISRDNAKNTVYLQMNSLKPEDTAVYYCNRGPRIYRYQYDYWGQGTQVTVSS	high polyreactivity
QVQLVESGGGLVHAGGSLRLSCAASGRIFQHYAMGWYRKAPGKERELVAAISWRGGSTYYADSVKGRFTISRDNAKNTVYLQMNSLIPEDTAVYYCAAGYPGRNPGFDYWGQGNQVTVSS	high polyreactivity
QVQLVESGGGLVQAGGSLRLSCAASGSIFSYNAMGWYRQAPGKERELFAAITWSGGSTYYADSVKGRFTISRDNAKNTVYLQMNSLKPEDTAVYYCAAKGGYSTGRPTYTKFNYWGQGTQVTVSS	high polyreactivity
QVQLVESGGGLVQAGGSLRLSCAASGRTFDYNAMGWYRQAPGKERELVAAISSSGGTTYYADPVKGRFTISRDNAKNTVYLQMNSLKPEDTAVYYCNADVGHKYKRRVSLYYWGQGTQVTVSS	low polyreactivity
QVQLVESGGVLVQAGGILRLSCAASGNIVVYYAMGWSRQAPGKERELVASITTSGGSTYYADSVKGRFTISRDNATNTVYFQMNSLKPEDTAVYYCAALYYYWLYYWGQGTQVTVSW	low polyreactivity
QVQLVESGGGLVQAGGSLRFRCAASGRIFSYVMGWYRQAPGKERELVAAISTGGGNTYYADSVKGRFTISRDNAKNTVYLQMNSLKPEDTAVYYCAADYYAGTFDYWGQGTQVTVSS	high polyreactivity
QVNLVESGGGLVQAGGSLRLSCAASGRTFRFYVMGWYRQAPGKERELVAVIRYRGGSTYYADSVKGRFTISRDNAKNTVYLHMNSLKPEDTAVYYCNADFLLAGNEYDFWGQGTQVTVSS	high polyreactivity
QVQLVESGGGLVQAGGSLRLSCAASGSIFGTYAKGWYRQAPGKERELVADISLSGGSTYYADSVKGRFTISRDTAKKSVYLQMNSLKPEDNAVYYCNAESTAYGYVAVYRYDYWGQGTQVTVSS	low polyreactivity
QVQLVESGGGLVQAGGSLRLSCAASGGTFVGYAMGWSRQAPGKERELVASITRRGGNTYYADSVKVRFTISRDNATNTFYLQMNSLNPEDTAVYYCANALVVQYGRYTGHPYDYWGQGTQVTVSS	high polyreactivity
QVQLVESVGGLVQAGGSLSLTCAASARTLNIYAMGWNRAAPGKERELVAAISKRGGTTYYADSVKGRFTISRDNAKNTVYLQMNSLKPEDTAVYYCNAAVRGVGELDYWGQGTQVTVSS	high polyreactivity
QVQLVESGGGLVQAGGRLRLSCTASGRPLYNYTMGWYRQAPGKERELVATINFSGGSTYYADSVKGRFTISRDNAKNTVYLQMNSLKQEDTAVYYCTARGYHYAYKGAYLGDDYWGQGTQVTVSS	low polyreactivity
QVQLVESGGGLVQAGGSLRLSCAASGRTSYTYVMGWYRQAPGTERELVAAIRLSGGNTYYADSVKGRFTISRDNAKNTVYLQMNSLKPEDTAVYYCAAHYWRHRKAYGYWGQGTQVTVSS	high polyreactivity
QVQLVESGGGLVQAGGSLRLSCEASGSTFYRYAMGWYRQAPGKERELVDAISSSGGSTYYADSVKGRFTISRDNAKNTVYLQMNSLKPEDTAVYYCNASYRVRRFDYWGQGTQVTVSS	low polyreactivity
QVQFVESGGGLVQAGGSLRLSCAASGFTFVWYDMGWYRQAPGKERELVAAISSGGSTYYADSVKGRFTISRDNAKNTVYLQMNSLKPEDTAVYYCAVYTGYYNYIYQYDYWGQGTQVTVSS	low polyreactivity
